Data published in the RNAGym collection of RNA variant scans (doi:10.7554/elife.80360).

B1: Twister Ribozyme (parent)
chain: AACACUGCCAAUGCCGGUCCCAAGCCCGGAUAAAAGUGGAGGGGGCGG

Variants of: B1
Test: self-cleavage, relative activity (ratio to wild type); higher = more cleavage; co-transcriptional

Variant | self-cleavage
G29C U31C | 0.999
G29U A30C | 1.06
G29U A30U | 0.912
G29U A32G | 0.781
G29U A32U | 0.911
G29U A33C | 0.821
G29U A33U | 0.911
G29U A34G | 0.684
G29U A35U | 0.892
G29U C46A | 0.876
G29U G36A | 0.481
G29U G38A | 0.775
G29U G38C | 0.778
G29U G41A | 0.422
G29U G41U | 0.521
G29U G42C | 0.388
G29U G42U | 0.261
G29U G43U | 0.299
G29U G44A | 0.79
G29U G44C | 0.858
G29U G45A | 0.812
G29U G45C | 0.294
G29U G45U | 0.574
G29U G47A | 0.71

Variant | self-cleavage
G29U G47C | 0.364
G29U G47U | 0.694
G29U G48C | 1.11
G29U U31A | 0.999
G29U U37G | 0.418
A30C | 0.911
A30C A32G | 0.821
A30C A33G | 0.58
A30C A34G | 0.326
A30C A35C | 0.808
A30C A35G | 0.38
A30C A40C | 0.103
A30C A40G | 0.189
A30C A40U | 0.0909
A30C G36A | 0.164
A30C G38A | 0.649
A30C G38U | 0.715
A30C G39A | 0.189
A30C G42A | 0.129
A30C G42U | 0.0949
A30C G43A | 0.187
A30C G44A | 1.01
A30C G45A | 0.733
A30C G45C | 0.266

Variant | self-cleavage
A30C G47C | 0.17
A30C G48C | 0.933
A30C G48U | 0.759
A30C U31G | 0.839
A30C U37A | 0.231
A30C U37C | 0.154
A30G | 0.952
A30G A32G | 1.02
A30G A32U | 0.962
A30G A33G | 0.806
A30G A35C | 0.792
A30G A35U | 0.782
A30G A40C | 0.215
A30G A40U | 0.0959
A30G C46A | 0.763
A30G G36A | 0.761
A30G G36C | 0.422
A30G G38U | 0.771
A30G G39A | 0.582
A30G G39C | 0.159
A30G G39U | 0.191
A30G G41A | 0.666
A30G G41U | 0.772
A30G G42A | 0.413

Variant | self-cleavage
A30G G42C | 0.571
A30G G43A | 0.22
A30G G43C | 0.225
A30G G44A | 0.85
A30G G45A | 0.901
A30G G45U | 0.757
A30G G47C | 0.534
A30G G48A | 0.958
A30G U31C | 0.988
A30G U37G | 0.92
A30U | 0.984
A30U A32G | 0.928
A30U A33G | 1.03
A30U A33U | 0.873
A30U A34C | 0.17
A30U A35C | 1.07
A30U A35G | 0.772
A30U A35U | 0.812
A30U A40C | 0.2
A30U A40G | 0.165
A30U A40U | 0.152
A30U C46U | 0.968
A30U G36C | 0.559
A30U G38C | 0.88

Variant | self-cleavage
A30U G38U | 0.957
A30U G41A | 0.621
A30U G42C | 0.501
A30U G42U | 0.434
A30U G43C | 0.229
A30U G43U | 0.558
A30U G44U | 0.973
A30U G47C | 0.669
A30U G48C | 1.07
A30U U31A | 0.931
A30U U37A | 0.742
A30U U37C | 0.72
U31A A32G | 0.985
U31A A33C | 0.833
U31A A34C | 0.536
U31A A40C | 0.207
U31A C46A | 0.816
U31A G36A | 0.614
U31A G36C | 0.388
U31A G36U | 0.292
U31A G39A | 0.343
U31A G39C | 0.151
U31A G41A | 0.452
U31A G41C | 0.266

Variant | self-cleavage
U31A G42U | 0.341
U31A G43A | 0.23
U31A G43C | 0.168
U31A G43U | 0.233
U31A G44A | 0.689
U31A G44U | 0.83
U31A G45C | 0.347
U31A G47A | 0.628
U31A G47C | 0.391
U31A G47U | 0.621
U31A G48A | 0.717
U31A G48C | 1.19
U31A G48U | 0.881
U31C A32C | 0.965
U31C A32G | 0.997
U31C A33G | 0.891
U31C A33U | 1.08
U31C A34C | 0.196
U31C A34U | 0.739
U31C A35U | 1.06
U31C A40U | 0.149
U31C G36A | 0.725
U31C G38A | 0.81
U31C G38U | 0.904

Variant | self-cleavage
U31C G39U | 0.19
U31C G41U | 0.764
U31C G42A | 0.363
U31C G42C | 0.413
U31C G43U | 0.537
U31C G44U | 1.01
U31C G45C | 0.593
U31C G45U | 0.871
U31C G47C | 0.745
U31C G47U | 1.02
U31C G48A | 0.901
U31C G48C | 1.2
U31C U37A | 0.892
U31C U37C | 0.587
U31C U37G | 1
U31G A32U | 0.765
U31G A33G | 1.02
U31G A34C | 0.477
U31G A35C | 1.06
U31G A35G | 0.682
U31G A40C | 0.224
U31G A40G | 0.0918
U31G C46A | 1.1
U31G G36A | 0.662

Variant | self-cleavage
U31G G36C | 0.712
U31G G38A | 0.937
U31G G38U | 0.778
U31G G39A | 0.623
U31G G39C | 0.144
U31G G41C | 0.278
U31G G41U | 0.763
U31G G42U | 0.447
U31G G43A | 0.324
U31G G44U | 0.882
U31G G45A | 0.99
U31G G47U | 0.92
U31G G48C | 1.19
U31G U37G | 0.734
A32C | 0.967
A32C A33C | 0.767
A32C A33U | 0.865
A32C A34G | 0.761
A32C A34U | 0.786
A32C A35G | 0.8
A32C A40G | 0.134
A32C A40U | 0.123
A32C C46U | 0.863
A32C G36U | 0.184

Variant | self-cleavage
A32C G38A | 1.03
A32C G38C | 0.89
A32C G41A | 0.556
A32C G41C | 0.326
A32C G41U | 0.603
A32C G42A | 0.289
A32C G42C | 0.326
A32C G43U | 0.344
A32C G45A | 0.95
A32C G45C | 0.546
A32C G45U | 0.758
A32C G48A | 0.929
A32C G48C | 1.12
A32C G48U | 0.893
A32C U37G | 0.625
A32G | 0.961
A32G A33C | 0.833
A32G A33U | 0.914
A32G A34G | 0.679
A32G A34U | 0.85
A32G A35G | 0.718
A32G A35U | 0.986
A32G A40C | 0.226
A32G A40U | 0.117

Variant | self-cleavage
A32G G36C | 0.403
A32G G36U | 0.244
A32G G38U | 0.846
A32G G39A | 0.48
A32G G39C | 0.155
A32G G39U | 0.158
A32G G43A | 0.284
A32G G43U | 0.439
A32G G44U | 1.06
A32G G45C | 0.559
A32G G47A | 0.924
A32G G47U | 0.893
A32G G48A | 0.925
A32G G48C | 0.976
A32G G48U | 1.1
A32G U37G | 0.716
A32U | 0.975
A32U A33G | 0.891
A32U A34G | 0.869
A32U A34U | 0.89
A32U A35U | 1.13
A32U A40C | 0.204
A32U A40G | 0.108
A32U C46A | 0.873

Variant | self-cleavage
A32U C46G | 0.973
A32U G36A | 0.701
A32U G38C | 1.12
A32U G39A | 0.596
A32U G39C | 0.144
A32U G39U | 0.158
A32U G41C | 0.284
A32U G41U | 0.659
A32U G42U | 0.298
A32U G43A | 0.239
A32U G43U | 0.384
A32U G44C | 0.934
A32U G45U | 0.819
A32U G47A | 0.883
A32U G47C | 0.583
A32U G47U | 0.83
A32U G48C | 1.2
A32U G48U | 0.977
A32U U37A | 0.74
A32U U37C | 0.669
A32U U37G | 0.737
A33C A34U | 0.969
A33C A35C | 0.522
A33C A35G | 0.707

Variant | self-cleavage
A33C A35U | 0.936
A33C A40C | 0.131
A33C A40G | 0.182
A33C A40U | 0.1
A33C G36A | 0.175
A33C G38A | 0.867
A33C G38U | 0.72
A33C G39C | 0.12
A33C G39U | 0.21
A33C G41U | 0.265
A33C G42A | 0.177
A33C G42C | 0.19
A33C G42U | 0.188
A33C G43C | 0.107
A33C G43U | 0.297
A33C G44A | 0.832
A33C G44C | 0.852
A33C G45A | 0.795
A33C G45C | 0.531
A33C G45U | 0.71
A33C G47A | 0.782
A33C G47U | 0.865
A33C G48A | 0.867
A33C G48C | 1.1

Variant | self-cleavage
A33C U37C | 0.354
A33C U37G | 0.626
A33G A35G | 0.865
A33G A35U | 0.789
A33G A40U | 0.184
A33G C46G | 0.855
A33G G36A | 0.509
A33G G36U | 0.256
A33G G38A | 0.709
A33G G38C | 0.878
A33G G39A | 0.362
A33G G39C | 0.118
A33G G39U | 0.222
A33G G41A | 0.453
A33G G41U | 0.381
A33G G42A | 0.215
A33G G43U | 0.238
A33G G44A | 0.79
A33G G45C | 0.545
A33G G47C | 0.394
A33G U37G | 0.601
A33U A34C | 0.637
A33U A34U | 0.847
A33U A35C | 0.961

Variant | self-cleavage
A33U A35G | 0.8
A33U A35U | 0.926
A33U A40C | 0.234
A33U A40U | 0.157
A33U C46A | 0.851
A33U C46G | 0.921
A33U C46U | 0.917
A33U G36A | 0.282
A33U G36U | 0.132
A33U G38U | 0.815
A33U G43U | 0.421
A33U G44A | 0.907
A33U G44C | 0.928
A33U G45C | 0.554
A33U G47A | 0.739
A33U G47U | 0.81
A33U G48A | 0.889
A33U G48C | 1.08
A33U U37A | 0.688
A33U U37G | 0.591
A34C | 0.378
A34C A35G | 0.212
